The numbers were not newly measured in patent publication US20100216667A1, “METHOD FOR DETERMINING COMPATIBILITY OF AN ACTIVE PHARMACEUTICAL INGREDIENT WITH MATERIALS” (priority 2008, published 2010), which cites them from elsewhere.

The conditions of this data set: pre-filled syringes with uncoated stoppers and Polysorbate-80.

As to “EPREX: marketed product whose active ingredient is erythropoietin”, the “Pure red cell aplasia (PRCA) in treated patients” value was “increase in pure red cell aplasia (PRCA)”.
